Test: soluble on expression in E. coli; label from the status in PepcDB or PDB records

Row | Sequence | soluble on expression in E. coli
1 | MRGSHHHHHHTDPALRASSFQFEQIGVIRSPYKEKFAVPRQPGLVKSANGELHLIAPYNQADAVRGLEAFSHLWILFVFHQTMEGGWRPTVRPPRLGGNARMGVFATRSTFRPNPIGMSLVELKEVVCHKDSVILKLGSLDLVDGTPVVDIKPYLPFAESLPDASASYAQSAPAAEMAVSFTAEVEKQLLTLEKRYPQLTLFIREVLAQDPRPAYRKGEETGKTYAVWLHDFNVRWRVTDAGFEVFALEPRGLCGR | soluble
2 | MIWIAVDRVGKKFINCSFGSRGTETGQLLWEKLEKKEIGEVMTDHWRAYAAFLPETIHTQSKAETYTVEGYNSILRHFLARLRRKTKCYTKSLEMLKYSVLLLMKYRNRELTIFHASSVKLEHHHHHH | not soluble
3 | MELKARAVGVEIIPKGKIIYYSVPNGDEYERGDLVLVLGDFGLEVGKVLIPPREVVIDEVGYELKAVIRKLTDEDLEQYRKNVEDALKAFQICKQKIKEHGLPMKLLYAKYTFDRTRLIFFFSAEGRVDFRELVRDLAKIFKTRIELRQVGVRDEMKFFGGLGLCGLPTCCSTFLREFTSVTLKHAKKQQMMINPAKISGPCRRLLCCLTYEYDFYEKELEGIPDEGSTITYEGKRYKVVNVNVFLRTVTLFSEQEGEMIKLPFDYFRKGE | soluble
4 | MSLGEPAQPGAKKYVLFDVDGTLIDAVDNQRRVWRVWAERYGLDPGEVYQVALRTRPMETFAQVAPDRDPQECLAALHELEDEDVRSGVYAAFDGASELLDALPPESWALVTSNYEHRVRGRFARTGLPVPSIIVDAASVEEGKPSPVPYLLAAKRLGADPQDCLVIEDAPSGVRSALRAGMTVWGVNAPVAVDGVHRHFGSLREAIRDILAVTSGTRPHEPRGSAAVEGHHHHHH | soluble
5 | MSIKIGLLGFGTVASGMPFLLKENKDKITAASGTKLEIAKVLVKDDDEKKRLLAAGNDFNFVTNVDDILSDDDIAIVVELMGRIEPAKTFITKALEAGKHVVSANKDLIATHGKELIRLAQDKGVAFYYEAAVAGGIPILRTLANSLTSDKVTRILGVLNGTSNFMMTKMVDEGWTYEAALKKAQELGYAESDPTNDVEGIDAAYKAVILSQFGFGMTIDFDQVVHQGISSITPDDVAMAQQLGYVIKLVGSVEETPSGIFAEVSPTFLPKSHPLASVNDVMNAVFVESIGIGESMYYGPGAGQKPTATSVVADVIRIARRIKDGNVGKCFNEFIRETKIAHPDDVKSHYYFAINTADEKGKMLRLAEIFNSEDISFEQVLQQKANGEQARVVIITHSLSKSQLVNVTEKLQAVADFKLLNTFKVLGE | not soluble
6 | MGSSHHHHHHSSGRENLYFQGHMIMIFTSSCCDNLSIDEIIERAEKGDCEAQYIVGFYYNRDSAIDSPDDEKAFYWLKLAAEQGHCEAQYSLGQKYTEDKSRHKDNEQAIFWLKKAALQGHTFASNALGWTLDRGEAPNYKEAVVWYQIAAESGMSYAQNNLGWMYRNGNGVAKDYALAFFWYKQAALQGHSDAQNNLADLYEDGKGVAQNKTLAAFWYLKSAQQGNRHAQFQIAWDYNAGEGVDQDYKQAMYWYLKAAAQGSVGAYVNIGYMYKHGQGVEKDYQAAFEWFTKAAECNDATAWYNLAIMYHYGEGRPVDLRQALDLYRKVQSSGTRDVSQEIRETEDLL | soluble
7 | GMIDEKFLIESNELVESSKIVMVGTNGENGYPNIKAMMRLKHDGLKKFWLSTNTSTRMVERLKKNNKICLYFVDDNKFAGLMLVGTIEILHDRASKEMLWTDGCEIYYPLGIDDPDYTALCFTAEWGNYYRHLKNITFKIDEIYNY | soluble
8 | SGPLDEYAYSWANHLLANPVNCATLEITLGPAEFLLRSDAQLAIAGGDLNATLDGRPIANWSRFYAKQGQTLRFGLPRNGLRAYLAVQGGFTVSPQLGSVSTHVRQGLGGLTSQGLALQTGDDLVFSAQQIAQKPVQMTFRFRPDYNLPLRLRVIESYQYQAFSPSAMESFYRSEFIVTPNSDRMGYRLQGETISPPDQAILSEGIALGAIQVPPNGQPIILLNDRQTIGGYPKLGCVARIDLPRLAQAKPGHSVRFVAGDLAGLQAVWCQWARFFGY | not soluble
9 | MGHHHHHHSHMEELLPDGQIWANMDPEERMLAAATAFTHICAGQGEGDVRREAQSIQYDPYSKASVAPGKRPALPVQLQYPHVESNVPSETVSEASQRLRKPVMKRKVLRRKPDGEVLVTDESIISESESGTENDQDLWDLRQRLMNVQFQEDKESSFDVSQKFNLPHEYQGISQDQLICSLQREGMGSPAYEQDLIVASRPKSFILPKLDQLSRNRGKTDRVARYFEYKRDWDSIRLPGEDHRKELRWGVREQMLCRAEPQSKPQHIYVPNNYLVPTEKKRSALRWGVRCDLANGVIPRKLPFPLSPS | not soluble
10 | MGHHHHHHSHMEEAGSVALEELVEKEKDRFFSGVDYIVISDNLWISQRKPAITYGTRGNSYFMVEVKCRDQDFHSGTFGGILHEPMADLVALLGSLVDSSGHILVPGIYDEVVPLTEEEINTYKAIHLDLEEYRNSSRVEKFLFDTKEEILMHLWRYPSLSIHGIEGAFDEPGTKTVIPGRVIGKFSIRLVPHMNVSAVEKQVTRHLEDVFSKRNSSNKMVVSMTLGLHPWIANIDDTQYLAAKRAIRTVFGTEPDMIRDGSTIPIAKMFQEIVHKSVVLIPLGAVDDGEHSQNEKINRWNYIEGTKLFAAFFLEMAQLH | not soluble
11 | MLNTIVLIRTDNFDKALTALADLVRYGGMKIRGTPRIIPPALSDWAFEQIVGEKPKKKVKAHVVAQIDLPASKAIGRIRDIHPPAHIIVIPVGSPVHKELLRLWGTFKELKGFHPPKEIKRLENIENEEDLELEHHHHHH | not soluble
12 | MSDGERVLKIPVEYFEDGWKKGEAVITKDAISFAGKTIRFKEIQDLERLKHEGRDAIRIKKDADYFIDFGSRQAQIFRYLAFNLKSDRFAVYFLSPATRGGVVVSDSKWEKGYLSITDEALWFLSSSKQIRISIQNLGSVEKDIRTVGKKQRVVLVVTHVENGEVITSFVLCPETTMDMLQEYIQNFIEKSKPKEKLSEVEEQILTMVYTGVDSVSVESILGVTTEELNKMYDRLVNLGLARVVKIRKEIELTPRGVALVSEIMKKAAR | not soluble
13 | MGSDKIHHHHHHMNLEEVLNYRRSVRVFDKTKPLDPEKVKHCLELATLAPNSSNMQLWEFYQVIQPELLAKISKACLDQTATSTASEVVVFVTRQDLYRIRAKFVLDFERGNVRRNSPKERQEKRIKDRELYYGKLMPFLYARFFRILGLLRSVLAKAIGLFRPIVREVSESDMRVVVHKSCALAAQTFMIAMANEGYDTCPLEGFDSKQMKKLLKLPHGAEVNMVIACGIRDGNKGIWGERGRVPFDEVYHRV | not soluble
14 | MGHHHHHHSHKELQRRRRSLALPGLQGCAELRQKLSLNFHSLCEQQPIGRRLFRDFLATVPTFRKAATFLEDVQNWELAEEGPTKDSALQGLVATCASAPAPGNPQPFLSQAVATKCQAATTEEERVAAVTLAKAEAMAFLQEQPFKDFVTSAFYDKFLQWKLFEMQPVSDKYFTEFRVLGKGGFGEVCAVQVKNTGKMYACKKLDK | soluble
15 | MKTPPINQKSLRETESWKLLESSIIYYEGNPIGTVAAQDPELAALNYDQCFLRDFVPSAFVFLMDGQTDIVRNFLIETLTLQSHEKEMDCFQPGAGLMPASFKVESDGSKEYLVADFGEKAIARVPPVDSCMWWILLLRAYEKATGDLTLAREPKFQAGIKLILDLCLAHRFSMYPTMLVPDGAFMIDRRMGVYEHPLEIQVLFYAALRAARELLLPDGDGEQYLNKVHGRLGALQYHIRNYYWVDLKRLREIYRYKGNEFGKEIANKFNIFSQSIPDWVIEWLPEKGGYLAGNLGPGRMDFRFFALGNLMAILAGLASEEESQRIMNLFAHRWEDLIGYMPVKICYPALQGLEWQIVTGCDPKNIPWSYHNGGNWPVLLWLFTAAALKTGKVELAHEAIAIAEGRLSNDKFPEYYDGNNGRLIGKEARIYQTWSIAGLLVAKQFLANPDHVEFISFPDTFIGPGCSLLEHHHHHH | not soluble
16 | MGSDKIHHHHHHMATENALYEILTEKIKQDTLVLPTLPEVALKVRSAADDPDINLNQMSDIIAHDPALSLGMLKVANNALMGRSIKVETVPQAVTRIGLIQIKSIATAMAIEQVFVSNNDVVAMYMNKAWVKTIDIASVAISLMNIYLKENKHTSLSLDTITLASLIHNIGVLPILTEAENHPDVFANPTFLQQAIIKLSGRVGGAITRKWGFSEEFTLLAESWSDLTILPSEVHYLDFIRAGAIYHNVFKNESTKVALLNNYTKKGILPEVDYMDSDEFKGMCEDVRAMFI | not soluble
17 | EGFYRHQTQSFSFMVNNVQVVFPSSTSKPWQGLASRRQIDIPQEKVDMIKQSGFVQQASSVYAKWDANITNLKGQNLSSTVSGIDTSYFPLIQRKLQSGSRNLSPSDMKNHTRVAVLGDQIAQMGGIQIGDRLKVNGIPFLVIGITVGEDTGISFGDSRTVFIPQTTYRDLWDAKPWMVLMKPRDGMDAPSFRQNIVNFFAKQLHFDPSDKDAVELPDFSEGAAVISGILRGIQI | not soluble
18 | MDHQFGYGVEVTGLSPSVTHNDLIDFFSFSGTIQDIDIVRSGEQACTAYVMFKDSYSQETAVLLTGATILDQRVCITRWGQHHEEFDFWNATSRGFEDESDSQHYAQRSEFNAGEAVTKAQEVVKIMLATGFVLGKDALSKAKAFDESHGVSAAAVARVSQLEQRIGLTDKIFTGLEAVRMTDQRYHVSDTAKSAVFATGRTAAAAATSVVNSSYFSSGALWLSGALERAAKAASDLGTRGSRQ | soluble
19 | MGSDKIHHHHHHMRIAPLPPLQCLVAFESAVRHASFTKAAAELHLTQSAISRQIAQLEDFLGRSLFVREHRALRLTIAGEGYAKHVQWLLASCSEATLDVMKRYGDMELTIACSSGVAVLWLTPRLGAFRAAHPNVRIRMIVRDGLASLSPAEFDVGLYYIRQRAEPHFTARRLFDEDVYPVCSPGYLAGRVLTPAGLVHETLLVQEDGQRQWMSWSEWFRLNHVQMPASPQAVVVNHYPQLVQMAILGQGVVLGWRHMIDACLSEGLLVRATQASASHGGGYYVVSPNDRSQNQAARLFTRWVFEQAEAQMGRAAS | not soluble
20 | MAKENPFTPFSDWTKHWQQFFQNDFWGSIQPLLPSSNKPSSGMNIYKKDNELLVVISLPGLEKIEDAEVYVSYKTLEVKATINLNFKGFELVEEGLFQGQFQKTIPLPFAVKEDRIEATYHNGLLFIHLHRLIPDEPKKKIVIKKSE | not soluble
21 | MEKKIEKVRQFYTALAQGDFETVGALLSDDLVWHQPGQGALSGTYNGKQNVFAHLERMAQLSNGTFAIDQVDYVTDNGNLVAAAIAFAVSANGHSIEMKGVDLFNFENGFIKKVWLFSERIEEESRFWTALAQGC | not soluble
22 | MLKVESISKDYREFKLREISFDVREGEHFIILGPSGSGKTVLLEIIAGIISPDRGRILLRGEDITGLPPEKRNFSYIPQNYALFPHMTVFDNIAFGLKLRKIPRKEVARKVREVAESLGIDHLLHRKPRTLSGGEQQRVAIARALVVKPELLLMDEPFANLDVQTKSKLIREMKRWRKEFGFTAIHVTHSFEEALSLGDRVGIMLRGRLVQVGDVRDVFSKPKSEEVARFLGFENIIEGVANGRILKVGDLRIELPREVWGKVRVGIRPEDITIFMEGVKTSARNVFKARVEGIEDLGALVKLTLNLGGIILRAFITRSSLIELGIREGEEVYASFKASAIHVFP | soluble
23 | MIRGNAGIMTNYRLSNLFSLQAELNFTTHGKNYCIDGLPHRNRYGYEVTDQTLINIRLHYLELPLLAKFTLFSSQKVTFDMAAGPFIGYKLAARQKTEGGDYQNTTSDYTRLNAGYQISFGFSVMKKRLFFEMRGSRGFVPINTADATKITTMQGGVAIGYYFFSGKKK | not soluble
